Assay [1] concerns the target T1, human SIRPβ1 isoform 1 on cells (human, UniProt O00241 30-398).
T1 construct: On CHO cells (low level), on BWZ/BW5147.G.1.4 cells (reporter cells co-express human DAP12) or on primary human myeloid cells; also called huSIRPβ1; BWZ-huSIRPβ1
As to the kind of experiment: flow cytometry.

The target of assay [2] is T2, human SIRPα on cells (human, UniProt P78324 31-504).
T2 construct: Whole entry
As to the kind of experiment: flow cytometry. In general terms: A flow cytometer gives signals particle by particle.

Assay [3] concerns the target T3, mouse SIRPβ1 on CHO cells (mouse).
T3 construct: Whole entry
T3 chain: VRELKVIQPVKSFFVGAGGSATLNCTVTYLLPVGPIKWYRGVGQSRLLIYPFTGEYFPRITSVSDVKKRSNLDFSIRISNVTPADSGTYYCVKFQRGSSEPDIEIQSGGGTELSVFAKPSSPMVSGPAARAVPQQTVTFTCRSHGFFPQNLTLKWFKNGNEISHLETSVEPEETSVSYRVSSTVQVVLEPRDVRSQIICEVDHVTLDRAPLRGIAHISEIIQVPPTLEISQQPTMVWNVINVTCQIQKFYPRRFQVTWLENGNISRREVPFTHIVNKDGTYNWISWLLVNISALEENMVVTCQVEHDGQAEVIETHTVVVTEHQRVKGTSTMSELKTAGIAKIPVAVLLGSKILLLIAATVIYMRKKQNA
As to the kind of experiment: flow cytometry.

For assay [4], the target named is T4, mouse SIRPα on cells (mouse, UniProt P97797 32-513).
T4 construct: whole, on cells
T4 sequence (looked up): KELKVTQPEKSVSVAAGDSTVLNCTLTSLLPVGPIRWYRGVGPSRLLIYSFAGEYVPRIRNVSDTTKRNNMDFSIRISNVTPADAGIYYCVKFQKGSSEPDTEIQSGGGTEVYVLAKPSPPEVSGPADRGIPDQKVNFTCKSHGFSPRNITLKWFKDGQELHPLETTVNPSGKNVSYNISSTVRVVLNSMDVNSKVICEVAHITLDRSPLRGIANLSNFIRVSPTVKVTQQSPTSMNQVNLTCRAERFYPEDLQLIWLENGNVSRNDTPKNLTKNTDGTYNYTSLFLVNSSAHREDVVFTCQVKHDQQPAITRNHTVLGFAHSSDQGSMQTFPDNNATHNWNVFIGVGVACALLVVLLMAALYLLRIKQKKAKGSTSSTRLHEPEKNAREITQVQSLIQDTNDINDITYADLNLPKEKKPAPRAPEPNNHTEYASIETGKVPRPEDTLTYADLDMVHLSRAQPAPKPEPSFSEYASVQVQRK
As to the kind of experiment: flow cytometry.

Assay [5] has as its target T2, human SIRPα on cells. As to the kind of experiment: flow cytometry. This is another data set of the same source.
The target in assay [6] is T3, mouse SIRPβ1 on CHO cells. As to the kind of experiment: flow cytometry.
For assay [7], the target named is T4, mouse SIRPα on cells. As to the kind of experiment: flow cytometry. The source holds these as a separate data set.
Assay [8] deals with T5, human SIRPβ1 domain 1 (D1) Fc fusion (human, UniProt O00241 30-148).
T5 construct: Made in HEK293/T cells with a heterologous signal peptide; also called Human SIRPβ1 D1-Fc; Human SIRPβ1-Fc; not shown: C-terminal human IgG1 Fc
As to the kind of experiment: Octet, IgG avid.

For assay [9], the target named is T6, human SIRPα domain 1 (D1) Fc fusion (human, UniProt P78324 32-149).
T6 construct: also called human SIRPα D1-Fc; Human SIRPα Fc; not shown: C-terminal human IgG1 Fc
As to the kind of experiment: Octet. A general note: Biolayer interferometry detects binding as a change in optical thickness at a sensor tip.

Another assay has as its target T7, mouse SIRPα D1-Fc (mouse, UniProt P97797 32-150, limits assumed).
T7 construct: domain: D1
T7 sequence (looked up): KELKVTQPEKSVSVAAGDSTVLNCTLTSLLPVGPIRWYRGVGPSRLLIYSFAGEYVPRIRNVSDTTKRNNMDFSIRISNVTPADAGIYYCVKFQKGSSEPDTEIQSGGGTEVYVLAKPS
As to the kind of experiment: Octet.
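Wherever FOB is given: antibodies tested at 1 µg/ml for 30 min on ice against receptor-expressing cells, detected with a PE-labelled secondary antibody, read as mean fluorescence intensity relative to background.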

T1 sequence (O00241 30-398): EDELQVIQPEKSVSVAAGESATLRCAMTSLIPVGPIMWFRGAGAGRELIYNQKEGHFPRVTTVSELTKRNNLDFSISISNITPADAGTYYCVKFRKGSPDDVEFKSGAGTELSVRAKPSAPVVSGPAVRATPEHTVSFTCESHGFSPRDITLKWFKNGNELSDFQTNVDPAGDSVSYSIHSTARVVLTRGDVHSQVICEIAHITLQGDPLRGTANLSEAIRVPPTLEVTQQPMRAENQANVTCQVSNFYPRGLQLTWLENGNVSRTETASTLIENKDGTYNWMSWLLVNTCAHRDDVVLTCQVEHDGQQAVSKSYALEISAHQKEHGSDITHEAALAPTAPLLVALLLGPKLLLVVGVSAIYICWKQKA
T5 sequence (O00241 30-148 limits assumed): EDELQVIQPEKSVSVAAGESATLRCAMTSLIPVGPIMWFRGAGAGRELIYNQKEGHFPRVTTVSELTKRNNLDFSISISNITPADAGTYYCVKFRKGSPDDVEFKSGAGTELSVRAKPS
Method for mouse SIRPα D1-Fc: Briefly, Octet affinity measurements were performed by loading IgGs on-line onto AHQ sensors. Sensors were equilibrated off-line in assay buffer for 30 min and then monitored on-line for 60 seconds for baseline establishment. For avid binding measurement, sensors with loaded IgGs were exposed to 100 nM antigen (human SIRPα domain 1 (D1) Fc fusion or SIRPβ1 domain 1 (D1) Fc fusion) for 3 min, and then transferred to assay buffer for 3 min for off-rate measurement. Additional avid binding was determined by loading biotinylated SIRPβ1 monomer on SA sensors and exposing to 100 nM IgG in solution. Monovalent binding measurements were obtained by loading human SIRPα- or SIRPβ1-Fc fusion antigens onto AHQ sensor, followed by exposure to 100 nM anti-SIRPβ1 antibody Fab. Additional monovalent measurements were made by loading biotinylated human SIRPα or SIRPβ1 monomer to SA sensor followed by exposure to 100 nM Fab in solution. Kinetics data were fit using a 1:1 binding model in the data analysis software provided by ForteBio (ForteBio Data Analysis Software 7.0).

B1: SB-12 (antibody, V domains shown)
VH: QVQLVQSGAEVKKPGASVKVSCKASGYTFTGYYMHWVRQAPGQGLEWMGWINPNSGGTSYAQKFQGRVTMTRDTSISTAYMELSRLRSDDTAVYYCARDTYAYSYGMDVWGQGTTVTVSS
VL: EIVMTQSPATLSVSPGERATLSCRASQSVSSNLAWYQQKPGQAPRLLIYSASTRATGIPARFSGSGSGTEFTLTISSLQSEDFAVYYCQQLDNLPYTFGGGTKVEIK
notes: IgG
By Kd is commonly meant a measure of binding affinity in units of concentration. A higher Kd goes with a looser complex. Take B1: the FOB is 1.6 fold over background in [1], 2 fold over background with human SIRPα on cells [2], 1.3 fold over background in assay [3] and 1.2 fold over background with mouse SIRPα on cells [4]. Besides, the binding result in the assay with human SIRPα on cells [5] is given as “no binding (tested: 1 ug/ml)”; in assay [6], “no binding (tested: 1 ug/ml)”; in the assay with mouse SIRPα on cells [7], “no binding (tested: 1 ug/ml)”; in [9], “no binding (tested: 100 nM)”; with mouse SIRPα D1-Fc, “no binding (tested: 100 nM)”. Binding in [8] was put at a Kd of 4.94 nM.

B2: SB-35 (antibody, V domains shown)
VH: QVQLVQSGAEVKKPGSSVKVSCKASGGTFSSYAISWVRQAPGQGLEWMGGIIPIFGTANYAQKFQGRVTITADESTSTAYMELSSLRSEDTAVYYCARGRPQSESYLLDYWGQGTLVTVSS
VL: not shown
notes: IgG
As for B2, the FOB is 2.1 fold over background in assay [1], 2.6 fold over background in the assay with human SIRPα on cells [2], 1.1 fold over background in assay [3] and 1 fold over background with mouse SIRPα on cells [4]. In addition, the binding result is reported as “no binding (tested: 1 ug/ml)” with human SIRPα on cells [5]; “no binding (tested: 1 ug/ml)” in assay [6]; “no binding (tested: 1 ug/ml)” with mouse SIRPα on cells [7]; “no binding (tested: 100 nM)” in assay [9]; “no binding (tested: 100 nM)” with mouse SIRPα D1-Fc. This molecule returned a Kd in assay [8] of 7.47 nM.

B3: SB-31 (antibody, V domains shown)
VH: QVQLVQSGAEVKKPGASVKVSCKASGYTFTSYYMHWVRQAPGQGLEWMGIINPGGGSTSYAQKFQGRVTMTRDTSTSTVYMELSSLRSEDTAVYYCAREGLYSSGWYIDVWGQGTLVTVSS
VL: DIQMTQSPSSVSASVGDRVTITCRASQGISSWLAWYQQKPGKAPKLLIYAASSLQSGVPSRFSGSGSGTDFTLTISSLQPEDFATYYCQQAVSHPFTFGGGTKVEIK
notes: IgG
Turning to B3, the FOB amounted to 3.1 fold over background in assay [1], 1.8 fold over background in the assay with human SIRPα on cells [2], 1.4 fold over background in assay [3] and 1 fold over background with mouse SIRPα on cells [4]. Moreover, the binding result in the assay with human SIRPα on cells [5] is recorded as “no binding (tested: 1 ug/ml)”; in assay [6], “no binding (tested: 1 ug/ml)”; with mouse SIRPα on cells [7], “no binding (tested: 1 ug/ml)”; in assay [9], “no binding (tested: 100 nM)”; in the assay with mouse SIRPα D1-Fc it was “no binding (tested: 100 nM)”. Moreover, the Kd in assay [8] was 3.75 nM.

B4: SB-29 (antibody, V domains shown)
VH: QVQLVQSGAEVKKPGSSVKVSCKASGGTFSSYAISWVRQAPGQGLEWMGSIIPIFGTANYAQKFQGRVTITADESTSTAYMELSSLRSEDTAVYYCARAPYGSSSGYGYFDLWGRGTLVTVSS
VL: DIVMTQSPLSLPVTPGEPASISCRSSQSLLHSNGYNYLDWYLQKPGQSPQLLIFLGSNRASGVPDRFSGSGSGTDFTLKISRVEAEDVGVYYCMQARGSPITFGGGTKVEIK
notes: IgG
In the case of B4, the FOB was determined as 1.8 fold over background in [1], 1.9 fold over background with human SIRPα on cells [2], 1.2 fold over background in assay [3] and 0.9 fold over background with mouse SIRPα on cells [4]. Besides, the binding result with human SIRPα on cells [5] was “no binding (tested: 1 ug/ml)”; in [6], “no binding (tested: 1 ug/ml)”; with mouse SIRPα on cells [7], “no binding (tested: 1 ug/ml)”; in assay [9] it was “no binding (tested: 100 nM)”; with mouse SIRPα D1-Fc it was “no binding (tested: 100 nM)”. Also, in assay [8], the Kd was found to be 10.7 nM.

B5: SB-37 (antibody, V domains shown)
VH: QVQLVQSGAEVKKPGSSVKVSCKASGGTFSNYAISWVRQAPGQGLEWMGGIIPIFGTANYAQKFQGRVTITADESTSTAYMELSSLRSEDTAVYYCARSRWGASGYYYYMDVWGQGTMVTVSS
VL: EIVLTQSPATLSLSPGERATLSCRASQSVSSYLAWYQQKPGQAPRLLIYDASNRATGIPARFSGSGSGTDFTLTISSLEPEDFAVYYCQQRHTYPLTFGGGTKVEIK
notes: IgG
Regarding B5, the FOB in assay [1] came to 3.8 fold over background; in the assay with human SIRPα on cells [2], 2.2 fold over background; in assay [3], 1.2 fold over background; with mouse SIRPα on cells [4], 1 fold over background. The binding result is “no binding (tested: 1 ug/ml)” in the assay with human SIRPα on cells [5]; “no binding (tested: 1 ug/ml)” in [6]; “no binding (tested: 1 ug/ml)” in the assay with mouse SIRPα on cells [7]; “no binding (tested: 100 nM)” in assay [9]; “no binding (tested: 100 nM)” with mouse SIRPα D1-Fc. Also, the affinity in assay [8], expressed as Kd, was 7.5 nM.

B6: SB-9 (antibody, V domains shown)
VH: QVQLVQSGAEVKKPGASVKVSCKASGYTFTSYGIHWVRQAPGQGLEWMGWISAYNGNTNYAQKLQGRVTMTTDTSTSTAYMELRSLRSDDTAVYYCARDGLHYGDYIVYYGMDVWGQGTTVTVSS
VL: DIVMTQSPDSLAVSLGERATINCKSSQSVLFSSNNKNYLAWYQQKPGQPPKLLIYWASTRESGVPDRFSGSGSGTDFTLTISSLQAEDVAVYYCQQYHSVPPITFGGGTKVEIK
notes: IgG
Turning to B6, the FOB in [1] amounted to 1.8 fold over background; with human SIRPα on cells [2], 2.1 fold over background; in [3] it was 1 fold over background; with mouse SIRPα on cells [4], 0.8 fold over background. For the same molecule, the binding result is given as “no binding (tested: 1 ug/ml)” in the assay with human SIRPα on cells [5]; “no binding (tested: 1 ug/ml)” in assay [6]; “no binding (tested: 1 ug/ml)” with mouse SIRPα on cells [7]; “no binding (tested: 100 nM)” in assay [9]; “no binding (tested: 100 nM)” in the assay with mouse SIRPα D1-Fc. In assay [8], the Kd stood at 3.66 nM.

B7: SB-33 (antibody, V domains shown)
VH: EVQLVESGGGLVQPGGSLRLSCAASGFTVSSNYMSWVRQAPGKGLEWVSVIYSGGSTYYADSVKGRFTISRDNSKNTLYLQMNSLRAEDTAVYYCARGQYTGSLDVWGQGTMVTVSS
VL: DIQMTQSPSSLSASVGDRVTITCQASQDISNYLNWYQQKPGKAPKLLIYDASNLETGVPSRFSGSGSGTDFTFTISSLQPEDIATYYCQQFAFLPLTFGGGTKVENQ
notes: IgG
As for B7, the FOB in [1] worked out at 1.4 fold over background; with human SIRPα on cells [2], 2.2 fold over background; in [3] it was 1.3 fold over background; with mouse SIRPα on cells [4], 1.4 fold over background. Moreover, the binding result is “no binding (tested: 1 ug/ml)” in the assay with human SIRPα on cells [5]; “no binding (tested: 1 ug/ml)” in assay [6]; “no binding (tested: 1 ug/ml)” with mouse SIRPα on cells [7]; “no binding (tested: 100 nM)” in assay [9]; “no binding (tested: 100 nM)” with mouse SIRPα D1-Fc. Moreover, the Kd in assay [8] amounted to 9.23 nM.

B8: SB-11 (antibody, V domains shown)
VH: QVQLVQSGAEVKKPGSSVKVSCKASGGTFSNYAISWVRQAPGQGLEWMGGIIPIFGTANYAQKFQGRVTITADESTSTAYMELSSLRSEDTAVYYCARPVDSSSYSLGYYYGMDVWGKGTTVTVSS
VL: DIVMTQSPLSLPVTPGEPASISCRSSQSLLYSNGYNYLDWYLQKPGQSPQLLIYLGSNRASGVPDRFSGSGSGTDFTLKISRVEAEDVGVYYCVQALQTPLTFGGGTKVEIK
notes: IgG
With B8, the FOB stood at 6.3 fold over background in assay [1], 2.3 fold over background with human SIRPα on cells [2], 1.2 fold over background in assay [3] and 0.9 fold over background with mouse SIRPα on cells [4]. Also, the binding result is recorded as “no binding (tested: 1 ug/ml)” with human SIRPα on cells [5]; “no binding (tested: 1 ug/ml)” in assay [6]; “no binding (tested: 1 ug/ml)” with mouse SIRPα on cells [7]; “no binding (tested: 100 nM)” in assay [9]; “no binding (tested: 100 nM)” in the assay with mouse SIRPα D1-Fc. In assay [8], this molecule gave a Kd of 3.69 nM.

The values are drawn from patent US20250026827A1 (Alector, published 2025).
